Laboratory results from CN110734897A (ZHEJIANG BLUE SHIELD PHARMA CO LTD, dated 2020).

Biological target: T1, 重组人SIRPα-his融合蛋白 (Acro Biosystems SIA-H5225) (human, UniProt P78324 31-370)
T1 construct: Bought reagent; also called 人SIRPα重组蛋白; not shown: his tag
Test: indirect ELISA screen of hybridoma supernatants, SIRPα-his coated

T1 sequence (P78324 31-370 limits assumed): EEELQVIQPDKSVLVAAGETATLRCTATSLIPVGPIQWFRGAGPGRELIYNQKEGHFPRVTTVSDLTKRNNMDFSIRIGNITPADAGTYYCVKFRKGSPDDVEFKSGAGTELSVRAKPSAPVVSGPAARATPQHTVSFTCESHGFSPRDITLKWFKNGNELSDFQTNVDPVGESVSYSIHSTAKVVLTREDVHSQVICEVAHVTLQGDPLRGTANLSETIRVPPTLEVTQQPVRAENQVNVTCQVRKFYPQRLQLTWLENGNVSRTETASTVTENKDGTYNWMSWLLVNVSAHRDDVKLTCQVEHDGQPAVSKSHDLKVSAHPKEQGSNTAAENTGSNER

B1: 杂交瘤细胞株12G6产生的抗人SIRPα单克隆抗体 (antibody, IgG2b, V domains shown)
VH: QIQLVQSGPELKKPGETVKISCKASGYTFTNYGMHWVKQAPGKDLKWMGWINTYTGEPTNADDFKGRFAFSLETSDRTAFLQINNLKNEDTATYFCARGHHYGNYAWFAYWGQGTLVTVSA
VL: DIVMTQSHKFMSTSVGDRVSITCKASQDVSLAVAWYQQKPGQSPKVLIYWASTRHTGVPDRFAGSGSGTDYTLTISSVQAEDLALYYCQQHYSTPWTFGGGTKLEIN
notes: also called 纯化的抗人SIRPα单克隆抗体
binding result: binds
